# Data from patent US20230407373A1 (priority 2020, published 2023).
# B1: MOV10: host protein, UniProt Q9HCE1 (protein, UniProt Q9HCE1 1-1003, looked up)
# Helicase MOV-10: MPSKFSCRQLREAGQCFESFLVVRGLDMETDRERLRTIYNRDFKISFGTPAPGFSSMLYGMKIANLAYVTKTRVRFFRLDRWADVRFPEKRRMKLGSDISKHHKSLLAKIFYDRAEYLHGKHGVDVEVQGPHEARDGQLLIRLDLNRKEVLTLRLRNGGTQSVTLTHLFPLCRTPQFAFYNEDQELPCPLGPGECYELHVHCKTSFVGYFPATVLWELLGPGESGSEGAGTFYIARFLAAVAHSPLAAQLKPMTPFKRTRITGNPVVTNRIEEGERPDRAKGYDLELSMALGTYYPPPRLRQLLPMLLQGTSIFTAPKEIAEIKAQLETALKWRNYEVKLRLLLHLEELQMEHDIRHYDLESVPMTWDPVDQNPRLLTLEVPGVTESRPSVLRGDHLFALLSSETHQEDPITYKGFVHKVELDRVKLSFSMSLLSRFVDGLTFKVNFTFNRQPLRVQHRALELTGRWLLWPMLFPVAPRDVPLLPSDVKLKLYDRSLESNPEQLQAMRHIVTGTTRPAPYIIFGPPGTGKTVTLVEAIKQVVKHLPKAHILACAPSNSGADLLCQRLRVHLPSSIYRLLAPSRDIRMVPEDIKPCCNWDAKKGEYVFPAKKKLQEYRVLITTLITAGRLVSAQFPIDHFTHIFIDEAGHCMEPESLVAIAGLMEVKETGDPGGQLVLAGDPRQLGPVLRSPLTQKHGLGYSLLERLLTYNSLYKKGPDGYDPQFITKLLRNYRSHPTILDIPNQLYYEGELQACADVVDRERFCRWAGLPRQGFPIIFHGVMGKDEREGNSPSFFNPEEAATVTSYLKLLLAPSSKKGKARLSPRSVGVISPYRKQVEKIRYCITKLDRELRGLDDIKDLKVGSVEEFQGQERSVILISTVRSSQSFVQLDLDFNLGFLKNPKRFNVAVTRAKALLIIVGNPLLLGHDPDWKVFLEFCKENGGYTGCPFPAKLDLQQGQNLLQGLSKLSPSTSGPHSHDYLPQEREGEGGLSLQVEPEWRNEL
# B2: TRA2B: host protein, UniProt P62995 (protein, UniProt P62995 2-288, looked up)
# Transformer-2 protein homolog …: SDSGEQNYGERESRSASRSGSAHGSGKSARHTPARSRSKEDSRRSRSKSRSRSESRSRSRRSSRRHYTRSRSRSRSHRRSRSRSYSRDYRRRHSHSHSPMSTRRRHVGNRANPDPNCCLGVFGLSLYTTERDLREVFSKYGPIADVSIVYDQQSRRSRGFAFVYFENVDDAKEAKERANGMELDGRRIRVDFSITKRPHTPTPGIYMGRPTYGSSRRRDYYDRGYDRGYDDRDYYSRSYRGGGGGGGGWRAAQDRDQIYRRRSPSPYYSRGGYRSRSRSRSYSPRRY
# B3: NONO: host protein, UniProt Q15233 (protein, UniProt Q15233 1-471, looked up)
# Non-POU domain-containing …: MQSNKTFNLEKQNHTPRKHHQHHHQQQHHQQQQQQPPPPPIPANGQQASSQNEGLTIDLKNFRKPGEKTFTQRSRLFVGNLPPDITEEEMRKLFEKYGKAGEVFIHKDKGFGFIRLETRTLAEIAKVELDNMPLRGKQLRVRFACHSASLTVRNLPQYVSNELLEEAFSVFGQVERAVVIVDDRGRPSGKGIVEFSGKPAARKALDRCSEGSFLLTTFPRPVTVEPMDQLDDEEGLPEKLVIKNQQFHKEREQPPRFAQPGSFEYEYAMRWKALIEMEKQQQDQVDRNIKEAREKLEMEMEAARHEHQVMLMRQDLMRRQEELRRMEELHNQEVQKRKQLELRQEEERRRREEEMRRQQEEMMRRQQEGFKGTFPDAREQEIRMGQMAMGGAMGINNRGAMPPAPVPAGTPAPPGPATMMPDGTLGLTPPTTERFGQAATMEGIGAIGGTPPAFNRAAPGAEFAPNKRRRY
# B4: DAZAP1: host protein, UniProt Q96EP5 (protein, UniProt Q96EP5 1-407, looked up)
# DAZ-associated protein 1: MNNSGADEIGKLFVGGLDWSTTQETLRSYFSQYGEVVDCVIMKDKTTNQSRGFGFVKFKDPNCVGTVLASRPHTLDGRNIDPKPCTPRGMQPERTRPKEGWQKGPRSDNSKSNKIFVGGIPHNCGETELREYFKKFGVVTEVVMIYDAEKQRPRGFGFITFEDEQSVDQAVNMHFHDIMGKKVEVKRAEPRDSKSQAPGQPGASQWGSRVVPNAANGWAGQPPPTWQQGYGPQGMWVPAGQAIGGYGPPPAGRGAPPPPPPFTSYIVSTPPGGFPPPQGFPQGYGAPPQFSFGYGPPPPPPDQFAPPGVPPPPATPGAAPLAFPPPPSQAAPDMSKPPTAQPDFPYGQYAGYGQDLSGFGQGFSDPSQQPPSYGGPSVPGSGGPPAGGSGFGRGQNHNVQGFHPYRR
# B5: CIRBP: host protein, UniProt Q14011 (protein, UniProt Q14011 1-172, looked up)
# Cold-inducible RNA-binding …: MASDEGKLFVGGLSFDTNEQSLEQVFSKYGQISEVVVVKDRETQRSRGFGFVTFENIDDAKDAMMAMNGKSVDGRQIRVDQAGKSSDNRSRGYRGGSAGGRGFFRGGRGRGRGFSRGGGDRGYGGNRFESRSGGYGGSRDYYSSRSQSGGYSDRSSGGSYRDSYDSYATHNE
# Test system: HCoV-OC43 gRNA and sgRNA
# Type: binding
# Details: 36 hpi; type n_36_v; tested against no-probe control; FDR<10%
row,Molecule,"target (unweighted spectral count, OC43 Probe II capture)"
1,B1,24
2,B2,15
3,B3,23
4,B4,13

# Same assay, conditions: OC43 Probe II, 12 hpi (type n_12_v), infected cells; tested against no-probe control
row,Molecule,target (unweighted spectral count)
1,B2,5
2,B3,4

# Same assay, conditions: OC43 Probe II, 24 hpi (type n_24_v), infected cells; tested against no-probe control
row,Molecule,target (unweighted spectral count)
1,B1,35
2,B5,7
3,B3,14
4,B4,7

# Same assay, conditions: type n_48_v; 48 hpi; OC43 Probe II capture on infected cells
row,Molecule,"target (unweighted spectral count, OC43 Probe II)"
1,B1,37
2,B2,12
3,B5,12
4,B3,31
5,B4,22

# Same assay, conditions: type n_48_v; 48 hpi; no-probe control on infected cells
row,Molecule,"background (unweighted spectral count, no-probe control)"
1,B1,1
2,B2,2
3,B5,1
4,B3,3
5,B4,1

# Same assay, conditions: type s_36_m; HCoV-OC43-infected HCT-8 cells, 36 hpi, Probe II
row,Molecule,target (spectral count)
1,B1,24
2,B2,15
3,B5,13
4,B3,23
5,B4,13

# Same assay, conditions: type s_36_m; uninfected-probe control, 36 hpi, Probe II
row,Molecule,background (spectral count)
1,B1,1
2,B2,2
3,B5,2
4,B3,4
5,B4,2

# Test system: SARS-CoV-2 gRNA and sgRNAs
# Type: binding
# Details: not given
row,Molecule,enrichment in SARS-CoV-2 Probe II RNP capture
1,B1,found in the SARS-CoV-2 experiments
2,B3,found in the SARS-CoV-2 experiments

# Same assay, conditions: Probe II capture; […]; LC-MS/MS LFQ
row,Molecule,target (unweighted spectral count in RNP capture)
1,B2,8
2,B5,15
3,B4,11

# Same assay, conditions: no-probe control pull-down, used as background for Probe II
row,Molecule,background (unweighted spectral count in control)
1,B1,1
2,B2,1
3,B5,1
4,B3,1
5,B4,1

# Test system: SARS-CoV-2 gRNA
# Type: binding
# Details: not given
row,Molecule,enrichment in SARS-CoV-2 Probe I RNP capture
1,B1,found in the SARS-CoV-2 experiments
2,B3,found in the SARS-CoV-2 experiments

# Same assay, conditions: […]; LC-MS/MS; Probe I sample (first 199 lines of Table 2)
row,Molecule,target (unweighted spectral count of the protein in the RNP capture)
1,B1,16
2,B2,13
3,B5,12
4,B4,13

# Test system: gRNA of HCoV-OC43
# Type: binding
# Details: type g_36_m; HCoV-OC43-infected HCT-8 cells, 36 hpi, Probe I
row,Molecule,target (spectral count)
1,B1,26
2,B3,28
3,B4,11

# Same assay, conditions: type g_36_m; uninfected-probe control, 36 hpi, Probe I
row,Molecule,background (spectral count)
1,B1,1
2,B3,6
3,B4,1

# Same assay, conditions: type n_48_v: 48 hours post-infection, infected cells, OC43 Probe I; unweighted spectral count
row,Molecule,"target (spectral count, OC43 Probe I RNP capture)"
1,B1,25
2,B2,10
3,B5,9
4,B3,36
5,B4,18

# Same assay, conditions: type n_48_v: 48 hours post-infection, no-probe control on infected cells
row,Molecule,"background (spectral count, no-probe control)"
1,B1,1
2,B2,2
3,B5,1
4,B3,3
5,B4,1
